Source: US10864269B2, “Therapeutic combinations comprising anti-CD73 antibodies and uses thereof” (MedImmune Limited, priority 2014, dated 2020)
Residue numbers refer to the chain shown, from its start. Blank lines part the entries; values can stand above or below the molecule they belong to.

Columns and labels:
muCD73 = molecular target: T1, muCD73 (Mus musculus, UniProt Q61503); assay: ELISA binding of Fab variants to murine CD73; details: combinatorial Fab library clones, capture ELISA and direct ELISA
T1 sequence (Q61503 29-551): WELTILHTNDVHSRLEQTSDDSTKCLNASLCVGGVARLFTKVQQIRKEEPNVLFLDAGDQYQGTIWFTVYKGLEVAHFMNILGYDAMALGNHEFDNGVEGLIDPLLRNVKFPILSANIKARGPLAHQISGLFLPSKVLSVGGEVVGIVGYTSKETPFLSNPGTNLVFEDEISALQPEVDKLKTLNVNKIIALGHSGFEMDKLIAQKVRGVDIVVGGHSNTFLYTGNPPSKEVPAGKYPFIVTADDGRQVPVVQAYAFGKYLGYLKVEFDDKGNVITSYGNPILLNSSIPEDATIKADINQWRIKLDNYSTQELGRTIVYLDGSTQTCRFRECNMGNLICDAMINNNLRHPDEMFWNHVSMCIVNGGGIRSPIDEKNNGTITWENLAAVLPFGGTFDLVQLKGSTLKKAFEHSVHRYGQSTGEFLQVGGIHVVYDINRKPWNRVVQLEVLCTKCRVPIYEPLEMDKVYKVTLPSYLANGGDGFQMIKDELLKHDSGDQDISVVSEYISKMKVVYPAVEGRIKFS
Description: (§1) CD730010GL9 IgG1-TM was enhanced by screening Fab libraries comprising variant CDR sequences with single amino acid mutations. Each of the 61 positions in the six CDRs was individually randomized to 19 amino acids (all natural amino acids except Cysteine), generating a library with a theoretical diversity of 1159 unique clones (19 amino acids per position times 61 positions). Bacterial Fab fragments were produced from 4224 clones of the library and screened for binding to human and murine CD73 protein by capture ELISA (Assay 2). 180 clones with increased binding signal compared to parental CD730010 GL9 IgG1-TM were selected and the mutations in the VH or VL domain were identified by DNA sequencing. The Fab concentration in the bacterial supernatants was normalized and the binding of the normalized supernatants to human and murine CD73 protein was evaluated by direct ELISA (Assay 1). Table 11 lists selected beneficial single amino acid substitutions and their effect on binding to recombinant CD73 protein.
(§2) To further improve the affinity of the anti-CD73 antibody, several single amino acid changes which improved binding when compared to parental CD730010 GL9 were combined to create a combinatorial Fab library (Assay 4). Fab fragments of 4224 clones of the combinatorial library were produced in E. coli and screened for binding to human and murine CD73 protein by capture ELISA. […]
(§3) 384-well ELISA plates were coated with about 1.5 ng/well recombinant CD73 protein, blocked with 1% BSA/0.1% Tween20/PBS and incubating with antibody samples for 90 minutes at room temperature. […] HRP activity was detected with tetra methyl benzidine (TMB) substrate and the reaction was stopped with 1 M HCl. Plates were read at 450 nm.
as §3, with “3” for “1.5”, “sheep-anti-human Fd antibody (for screening antibodies in Fab format),” for “recombinant CD73 protein,”, “with” for “with antibody”

huCD73 [1] = molecular target: T2, huCD73 (Homo sapiens, UniProt P21589); assay: ELISA binding of Fab variants to human CD73; details: combinatorial Fab library clones, capture ELISA and direct ELISA
T2 sequence (P21589 27-549): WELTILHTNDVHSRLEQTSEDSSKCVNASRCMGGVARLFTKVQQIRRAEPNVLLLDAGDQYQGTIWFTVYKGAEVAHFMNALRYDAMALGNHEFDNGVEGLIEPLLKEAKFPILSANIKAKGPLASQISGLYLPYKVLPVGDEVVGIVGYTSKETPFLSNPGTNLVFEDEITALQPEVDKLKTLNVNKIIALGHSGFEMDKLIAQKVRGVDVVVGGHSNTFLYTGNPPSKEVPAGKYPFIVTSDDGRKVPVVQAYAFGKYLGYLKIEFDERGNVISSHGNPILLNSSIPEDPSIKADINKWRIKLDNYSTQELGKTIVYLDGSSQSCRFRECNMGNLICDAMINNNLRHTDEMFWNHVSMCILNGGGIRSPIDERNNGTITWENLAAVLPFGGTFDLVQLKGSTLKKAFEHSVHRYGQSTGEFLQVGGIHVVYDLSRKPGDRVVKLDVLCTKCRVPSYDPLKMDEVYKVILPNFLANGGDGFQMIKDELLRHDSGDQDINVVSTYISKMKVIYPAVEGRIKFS
Description: as §1, §2, §3
as §3, with “3” for “1.5”, “sheep-anti-human Fd antibody (for screening antibodies in Fab format),” for “recombinant CD73 protein,”, “with” for “with antibody”

[2] = molecular target: T3, native CD73, MDA-MB-231 cells (Homo sapiens, UniProt P21589); assay: Flow cytometry binding to native CD73, MDA-MB-231 cells; details: as measured by flow cytometry; read-out: KD, CD73 on the surface of MB-MDA-231 cells
T3 construct: native CD73 expressed on human, murine, and cynomolgus monkey cell lines; endogenous in cells; host or cells: MDA-MB-231
T3 sequence (P21589 27-549): T2 sequence (P21589 27-549)
Protocol: (§4) Binding of MEDI9447 to native CD73 expressed on human, murine, and cynomolgus monkey cell lines was characterized by flow cytometry. The cells were incubated with various concentrations of MEDI9447 and antibody binding was monitored with and fluorophore-labeled anti-human Fc antibody. A plot of the median fluorescence intensity as a function of the MEDI9447 concentration was fitted nonlinearly using a one-site binding isotherm model to calculate the equilibrium dissociation constant.
(§5) The affinity of enhanced anti-CD73 antibodies (in IgG1-TM format) to human, murine, and cynomolgus CD73 was determined by flow cytometry and surface plasmon resonsance (SPR) (Table 13). The enhanced antibodies had pM affinity to cellular and recombinant CD73 from the three species.
(§6) All flow cytometry experiments were run at 4C and reagents were prepared in PBS/1% FBS buffer. 10,000 cells were incubated with test antibody in 50 uL volume for 4 hours. Cells were washed twice and incubated in 50 uL goat anti-human IgGFc-AlexaFluor647 conjugate for 15 minutes. Cells were washed, resuspended in buffer supplemented with Dapi, and analyzed on a flow cytometer. […] For the determination of KD values, a plot of the median fluorescence intensity as a function of test antibody concentration was fitted nonlinearly using a one site binding isotherm model.

murine CD73 = molecular target: T4, murine CD73 (Mus musculus, UniProt Q61503); assay: Solution binding, murine CD73; details: as measured by solution binding
T4 sequence (Q61503 29-551): T1 sequence (Q61503 29-551)

native CD73, MK-1 cells = assay: Flow cytometry binding to native CD73, MK-1 cells; details: as measured by flow cytometry; read-out: KD, CD73 on the surface of cynomolgus MK-1 cells
Protocol: as §4, §5, §6

cynomolgus CD73 = assay: Solution binding, cynomolgus CD73; details: as measured by solution binding
huCD73 [3] = molecular target: T2, huCD73; assay: Solution binding, human CD73; details: as measured by solution binding

binding to murine CD73 (muCD73): strong binding | binding to human CD73 (huCD73 [1]): strong binding
B1: C2: combinatorial library clone of CD730010 GL9; VL SEQ ID NO: 61, VH SEQ ID NO: 75 (antibody, V domains shown)
VH: EVQLLESGGGLVQPGGSLRLSCAASGFTFSSYAYSWVRQAPGKGLEWVSLIWGSWGSTYYADSVKGRFTISRDNSKNTLYLQMNSLRAEDTAVYYCARLGYSTIDMWGRGTLVTVSS
VL: QSVLTQPPSASGTPGQRVTISCSGSLSNIGRNPVNWYQQLPGTAPKLLIYLDNLRLGGVPDRFSGSKSGTSASLAISGLQSEDEADYYCATWDDSLKGWLFGGGTKLTVL

binding to murine CD73 (muCD73): strong binding | binding to human CD73 (huCD73 [1]): strong binding
B2: D3: combinatorial library clone of CD730010 GL9; VL SEQ ID NO: 62, VH SEQ ID NO: 76 (antibody, V domains shown)
VH: B1 VH with L50A, W52S, W55G, S57R, M106L
VL: B1 VL with G57S, K97I

binding to murine CD73 (muCD73): strong binding | binding to human CD73 (huCD73 [1]): strong binding
B3: G10: combinatorial library clone of CD730010 GL9; VL SEQ ID NO: 63, VH SEQ ID NO: 77 (antibody, V domains shown)
VH: B1 VH with L50A, W52S, S57R, M106L
VL: B1 VL with P33D, D52N, L54Q

Kd [2]: ~0.08 nM | Kd (murine CD73): ~1.5 nM | Kd (cynomolgus CD73): ~0.1 nM | Kd (huCD73 [3]): ~0.08 nM
B4: CD730002 2C5: IgG1 with CD730002-derived VL of SEQ ID NO: 88 and VH of SEQ ID NO: 87 (antibody, V domains shown)
VH: EVQLLESGGGLVQPGGSLRLSCAASGFTFSSYAMSWVRQAPGKGLEWVSAISGSGGSTYYADSVKRRFTISRDNSKNTLYLQMNSLRAEDTAVYYCARDKGYYWYMDVWGQGTMVTVSS
VL: QSVLTQPPSVSVSPGQTASITCSGDKVGDKYASWYQQKPGQSPVLVIYEDTKRLSGIPERFSGSNSGNTATLTISGTQAMDEADYYCQAWDTSFWVFGGGTKLTVL
Kd (native CD73, MK-1 cells): ~0.06 nM
